The data set addresses T1, MgrA (Staphylococcus aureus XN108) (UniProt P0C1S0).
T1 sequence: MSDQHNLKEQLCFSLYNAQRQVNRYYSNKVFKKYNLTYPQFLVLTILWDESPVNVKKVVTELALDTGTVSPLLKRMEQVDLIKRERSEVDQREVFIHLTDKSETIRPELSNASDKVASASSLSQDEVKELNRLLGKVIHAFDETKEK
Put plainly: competition.

Consider “TTTACGTGCAGCACGTTCACGTACCTCAAAGTTACCGAAACCAATTAATTGTACTTTTTCACCTTTAGCAAGTGAGTTTTGGATTGATTCGAATACAGCATCTACTGCTGAACCAGCTTCTTTTT (double strand) [hu fragment (competitor)]”, for which the binding entry is “no binding”.

These data come from paper PMC11944577.
